Experiment [1] deals with T1, Human VSIG4-L-His (human, UniProt Q9Y279 20-283).
T1 construct: long isoform ECD with His tag; also called hVSIG4-L
T1 sequence: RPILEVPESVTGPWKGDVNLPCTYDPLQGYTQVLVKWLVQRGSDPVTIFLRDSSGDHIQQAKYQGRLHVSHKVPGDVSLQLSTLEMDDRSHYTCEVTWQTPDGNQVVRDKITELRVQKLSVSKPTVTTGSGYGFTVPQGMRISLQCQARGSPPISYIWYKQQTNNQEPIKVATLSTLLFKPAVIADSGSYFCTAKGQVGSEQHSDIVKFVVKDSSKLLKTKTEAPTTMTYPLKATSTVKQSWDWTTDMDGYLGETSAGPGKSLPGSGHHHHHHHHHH
Nature of the experiment: SPR (FJB).

The target in experiment [2] is T2, Cynomolgus Monkey VSIG4-L-His (cynomolgus monkey).
T2 construct: ECD with His tag; also called cyVSIG4-L; cyno VSIG4-L-His
T2 chain: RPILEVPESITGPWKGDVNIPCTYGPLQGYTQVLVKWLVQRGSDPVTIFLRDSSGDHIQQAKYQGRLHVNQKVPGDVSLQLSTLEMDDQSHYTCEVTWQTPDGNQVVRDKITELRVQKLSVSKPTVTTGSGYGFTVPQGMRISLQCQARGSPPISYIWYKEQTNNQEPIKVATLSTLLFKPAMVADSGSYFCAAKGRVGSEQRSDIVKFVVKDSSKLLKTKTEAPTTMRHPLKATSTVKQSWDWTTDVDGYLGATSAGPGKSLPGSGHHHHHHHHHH
The experiment is described as follows: SPR (FJB).

Experiment [3] deals with T3, Mouse VSIG4-His (mouse).
T3 construct: ECD with His tag; also called mVSIG4
T3 chain: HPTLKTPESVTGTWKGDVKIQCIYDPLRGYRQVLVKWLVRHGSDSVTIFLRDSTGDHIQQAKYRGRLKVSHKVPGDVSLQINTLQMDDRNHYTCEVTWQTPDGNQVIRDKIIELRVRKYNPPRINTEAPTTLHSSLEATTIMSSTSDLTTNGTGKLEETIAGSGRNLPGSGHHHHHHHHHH
Nature of the experiment: ELISA (FJB), muVSIG4-His.

Experiment [4] concerns the target T4, Human VSIG4-L-CHO (human VSIG4 long isoform on CHO-K1 cells) (human, UniProt Q9Y279 20-399).
T4 construct: also called hVSIG4-L (flow cytometry)
T4 sequence: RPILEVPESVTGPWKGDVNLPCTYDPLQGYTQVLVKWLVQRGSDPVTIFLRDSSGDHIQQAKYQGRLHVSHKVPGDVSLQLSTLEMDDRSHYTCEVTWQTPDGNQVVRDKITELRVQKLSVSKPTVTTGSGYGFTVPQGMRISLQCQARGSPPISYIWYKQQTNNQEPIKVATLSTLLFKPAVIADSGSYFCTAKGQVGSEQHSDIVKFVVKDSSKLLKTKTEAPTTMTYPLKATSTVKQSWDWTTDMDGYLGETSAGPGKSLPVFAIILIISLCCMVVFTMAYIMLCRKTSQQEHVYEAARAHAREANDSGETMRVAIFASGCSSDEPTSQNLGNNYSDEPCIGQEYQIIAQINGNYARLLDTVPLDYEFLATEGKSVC
Nature of the experiment: flow cytometry (FJB), huVSIG4-L CHO-K1 cells. (In flow cytometry, cells or beads pass a laser one at a time.)

In experiment [5] the target is T5, Human VSIG4-L-Fc (human).
T5 construct: also called hVSIG4-L-Fc; hVSIG4-L
The experiment is described as follows: BLI cross-blocking on hVSIG4-L-Fc, competitor 12A12 first.

For experiment [6], the target named is T5, Human VSIG4-L-Fc. The experiment is described as follows: BLI cross-blocking on hVSIG4-L-Fc, competitor 14C05 first.
For experiment [7], the target named is T5, Human VSIG4-L-Fc. The experiment is described as follows: BLI cross-blocking on hVSIG4-L-Fc, competitor 16G02 first.
The target of experiment [8] is T5, Human VSIG4-L-Fc. Nature of the experiment: ligand competition ELISA (FJB), blocked ligand C3b. On the technique in general: ELISA stands for enzyme-linked immunosorbent assay.
For experiment [9], the target named is T5, Human VSIG4-L-Fc. The experiment is described as follows: ligand competition ELISA (FJB), blocked ligand iC3b.
Experiment [10] deals with T4, Human VSIG4-L-CHO (human VSIG4 long …). The experiment is described as follows: flow cytometry (FJB), 200 nM mAb, huVSIG4-L CHO-K1 cells.
For experiment [11], the target named is T5, Human VSIG4-L-Fc. The experiment is described as follows: ligand competition ELISA (FJB), blocked ligand C3b, 200 nM mAb.
For experiment [12], the target named is T5, Human VSIG4-L-Fc. The experiment is described as follows: ligand competition ELISA (FJB), blocked ligand iC3b, 200 nM mAb.
Experiment [13] addresses T4, Human VSIG4-L-CHO (human VSIG4 long …). The experiment is described as follows: flow cytometry (FJB), 200 nM mAb, huVSIG4-L CHO-K1 over parental CHO-K1.
The target in a further experiment is T6, Human VSIG4-S-His (human, UniProt Q9Y279 20-283).
T6 construct: short isoform ECD with His tag; also called hVSIG4-S; VISG4-S-His
T6 sequence: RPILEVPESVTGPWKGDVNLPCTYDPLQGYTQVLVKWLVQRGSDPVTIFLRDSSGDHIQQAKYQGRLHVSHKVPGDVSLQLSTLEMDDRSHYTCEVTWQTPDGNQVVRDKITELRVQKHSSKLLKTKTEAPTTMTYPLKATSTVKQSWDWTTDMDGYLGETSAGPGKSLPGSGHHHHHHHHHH
The experiment is described as follows: BLI (Octet), IgG on AHC sensor. On the technique in general: Biolayer interferometry detects binding as a change in optical thickness at a sensor tip.

Experiment [14] has as its target T5, Human VSIG4-L-Fc. The experiment is described as follows: ELISA, IgG 50 nM on coated antigen.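 Note: Mouse-human chimeric IgG4 antibodies incubated 1 h on plate-coated VSIG4 proteins, bound IgG detected with HRP-labelled anti-human IgG, irrelevant antibody and protein as specificity controls.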
A further experiment concerns the target T7, Human VSIG4-S-Fc (human).
T7 construct: short isoform ECD fused to human Fc1; also called hVSIG4-S
Nature of the experiment: ELISA, IgG 50 nM on coated antigen.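 Note: Mouse-human chimeric IgG4 antibodies incubated 1 h on plate-coated VSIG4 proteins, bound IgG detected with HRP-labelled anti-human IgG, irrelevant antibody and protein as specificity controls.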

Experiment [15] concerns the target T3, Mouse VSIG4-His. Nature of the experiment: ELISA, IgG 50 nM on coated antigen.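 Note: Mouse-human chimeric IgG4 antibodies incubated 1 h on plate-coated VSIG4 proteins, bound IgG detected with HRP-labelled anti-human IgG, irrelevant antibody and protein as specificity controls.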
Experiment [16] has as its target T1, Human VSIG4-L-His. The experiment is described as follows: BLI (Octet), IgG on AHC sensor, antigen 100 nM.
Experiment [17] deals with T4, Human VSIG4-L-CHO (human VSIG4 long …). Nature of the experiment: flow cytometry, CHO-K1 cells expressing hVSIG4-L.
Experiment [18] concerns the target T5, Human VSIG4-L-Fc. The experiment is described as follows: BLI binning on hVSIG4-L-Fc, competitor 12A08 first.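 Note: normalized to binding of second antibody without first competitor antibody.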
Experiment [19] addresses T5, Human VSIG4-L-Fc. The experiment is described as follows: BLI binning on hVSIG4-L-Fc, competitor 12A12 first.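 Note: normalized to binding of second antibody without first competitor antibody.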
In experiment [20] the target is T5, Human VSIG4-L-Fc. The experiment is described as follows: BLI binning on hVSIG4-L-Fc, competitor 13H11 first.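 Note: normalized to binding of second antibody without first competitor antibody.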
Experiment [21] concerns the target T5, Human VSIG4-L-Fc. The experiment is described as follows: BLI binning on hVSIG4-L-Fc, competitor 14C05 first.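 Note: normalized to binding of second antibody without first competitor antibody.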
In experiment [22] the target is T5, Human VSIG4-L-Fc. Nature of the experiment: BLI binning on hVSIG4-L-Fc, competitor 14D12 first.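 Note: normalized to binding of second antibody without first competitor antibody.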
Experiment [23] deals with T5, Human VSIG4-L-Fc. Nature of the experiment: BLI binning on hVSIG4-L-Fc, competitor 15A06 first.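 Note: normalized to binding of second antibody without first competitor antibody.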
The target in experiment [24] is T5, Human VSIG4-L-Fc. Nature of the experiment: BLI binning on hVSIG4-L-Fc, competitor 15C03 first.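 Note: normalized to binding of second antibody without first competitor antibody.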
For experiment [25], the target named is T5, Human VSIG4-L-Fc. Nature of the experiment: BLI binning on hVSIG4-L-Fc, competitor 15C04 first.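 Note: normalized to binding of second antibody without first competitor antibody.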
In experiment [26] the target is T5, Human VSIG4-L-Fc. The experiment is described as follows: BLI binning on hVSIG4-L-Fc, competitor 16E03 first.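 Note: normalized to binding of second antibody without first competitor antibody.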
For experiment [27], the target named is T5, Human VSIG4-L-Fc. Nature of the experiment: BLI binning on hVSIG4-L-Fc, competitor 16E10 first.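 Note: normalized to binding of second antibody without first competitor antibody.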
Experiment [28] concerns the target T2, Cynomolgus Monkey VSIG4-L-His. The experiment is described as follows: ELISA, IgG 50 nM on coated antigen; ELISA, bivalent IgG on plate-coated cyVSIG4-L (avid format).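 Note: Mouse-human chimeric IgG4 antibodies incubated 1 h on plate-coated VSIG4 proteins, bound IgG detected with HRP-labelled anti-human IgG, irrelevant antibody and protein as specificity controls.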

T7 sequence (chain, as listed by the source limits assumed): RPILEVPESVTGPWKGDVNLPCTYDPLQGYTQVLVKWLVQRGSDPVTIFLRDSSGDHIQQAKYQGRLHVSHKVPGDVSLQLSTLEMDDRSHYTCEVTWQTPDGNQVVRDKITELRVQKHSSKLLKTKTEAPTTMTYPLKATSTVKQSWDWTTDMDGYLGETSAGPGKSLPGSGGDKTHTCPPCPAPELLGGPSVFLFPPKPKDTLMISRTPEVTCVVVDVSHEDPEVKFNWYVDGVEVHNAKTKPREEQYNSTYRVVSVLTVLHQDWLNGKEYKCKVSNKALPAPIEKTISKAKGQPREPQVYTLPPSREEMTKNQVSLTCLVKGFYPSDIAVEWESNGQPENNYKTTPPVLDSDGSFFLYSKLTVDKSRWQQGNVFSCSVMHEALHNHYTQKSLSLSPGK

B1: 16G02 mouse/human chimeric IgG4 (S228P) kappa (antibody, V domains shown)
VH: QVQLQQSGAELMKPGASVKISCKATGYTFSSYWIEWVKQRPGHGLEWIGEILPGSSTTNYNEKFKGKATFTADTSSNTAYMQLSSLTSEDSAVYYCAREDHFITTARYAMDYWGQGTSVTVSS
VL: DIVLTQSPASLAMSVGQKVTMSCKSSQSLLNSSNQKNYLAWYQQKPGQSPKLLLYFASTRESGVPDRFIGSGSGTDFTLTISSVQAEDLADYFCQQHYSNPLTFGAGTKLELKR
Turning to B1, the Kd (as a rule, the concentration at which binding is half-saturated) was found to be 2.5 nM in the experiment with Human VSIG4-L-His [1] and 1.3 nM in [2]. In the experiment with Mouse VSIG4-His [3], the binding result is given as “no binding (tested: 50 nM)”. For the same molecule, in [4], the EC50 (commonly the concentration needed to bring the measured effect to its halfway point) was 5.2 nM. For the same molecule, the “binding signal (nm shift)” value with Human VSIG4-L-Fc [5] amounted to 0.1 nm; with Human VSIG4-L-Fc [6] it was 0.11 nm; in the experiment with Human VSIG4-L-Fc [7], 0.11 nm. Further, the results for the IC50 with Human VSIG4-L-Fc [8] and with Human VSIG4-L-Fc [9] were 1.1 nM and 1 nM, respectively. Also, the “Binding (200 nM) MFI” value in experiment [10] was 38100 MFI. Moreover, in the experiment with Human VSIG4-L-Fc [11], the “% Block C3b (200 nM mAb)” value stood at 96%. Further, in the experiment with Human VSIG4-L-Fc [12], the “% Block iC3b (200 nM mAb)” value was determined as 98%. Further, in [13], the “Binding (200 nM) Fold-Over-Parental” value stood at 130 fold.

B2: 15A06 mouse/human chimeric IgG4 (S228P) kappa (antibody, V domains shown)
VH: QVQMKQSGPSLVRPSQTLSLTCSVTGDSITSGYWNWIRKFPGDKFEYLGYISYSGFTYYNPSLKSRVSITRDTSKNQYYLQLHSVTTEDTATYYCASSKYGSSLGFPYWGQGTLVTVSA
VL: DVVMTQTPLSLPVSLGDQASISCRSSQSLVHSNGNTYLHWYLQKPGQSPKLLIYKVSNRFSGVPDRFSGSGSGTDFTLKISRVEAEDLGVYFCSQSTHVPFTFGSGTKLEIKR
For the molecule B2, the equilibrium dissociation constant (Kd) came out at 15 nM in the experiment with Human VSIG4-L-His [1], 14.3 nM in experiment [2] and 28.5 nM with Human VSIG4-L-His [16]. In addition, the binding result with Human VSIG4-S-His is given as “no binding (tested: 100 nM)”. The “ELISA OD450” value in the experiment with Human VSIG4-L-Fc [14] worked out at 4.38 OD450; in the experiment with Human VSIG4-S-Fc, 0.24 OD450; with Mouse VSIG4-His [15] it was 0.067 OD450; in experiment [28] it was 4.35 OD450. The molecule also had a half-maximal effective concentration (EC50) in [17] of 2.4 nM. For the same molecule, the “normalized maximum binding nm shift” value with Human VSIG4-L-Fc [18] amounted to 0.88 normalized; in the experiment with Human VSIG4-L-Fc [19] it was 0.91 normalized; with Human VSIG4-L-Fc [20], 0.53 normalized; in the experiment with Human VSIG4-L-Fc [21] it was 0.8 normalized; with Human VSIG4-L-Fc [22], 0.79 normalized; with Human VSIG4-L-Fc [23], 0.12 normalized. Also, the “normalized maximum binding nm shift” value with Human VSIG4-L-Fc [24] came out at 0.79 normalized; with Human VSIG4-L-Fc [25] it was 0.15 normalized; in the experiment with Human VSIG4-L-Fc [26], 0.73 normalized; in the experiment with Human VSIG4-L-Fc [27] it was 0.95 normalized. In addition, in [10], the “Binding (200 nM) MFI” value is 23900 MFI. Besides, the “% Block C3b (200 nM mAb)” value with Human VSIG4-L-Fc [11] was -24%. Moreover, the “% Block iC3b (200 nM mAb)” value in the experiment with Human VSIG4-L-Fc [12] is 2%. In addition, the “Binding (200 nM) Fold-Over-Parental” value in [13] was determined as 63 fold.

The values above are taken from patent US20230348603A1 (VERSEAU THERAPEUTICS, published 2023).
